How the values were obtained:
DKK3 = target: T1, DKK3 (Homo sapiens, UniProt Q9UBP4); test: Cell surface binding of His-tagged rhDKK3 by flow cytometry; conditions: BxPC3 or L3.6p1 cells, rhDKK3 10 μg/ml, JM6-6-1 70 μg/ml
T1 construct: purchased R&D
Experimental: FIGS. 11A-C. DKK3 expression in autochthonous model of PDAC and effects of DKK3 mAb on cell surface binding of DKK3 and orthotopic model. (FIG. 11A) DKK3 expression was measured by qPCR in pancreatic tumors from P48-Cre; Kras LSL-G12D;Trp53fl/fl and P48-Cre; Kras LSL-G12D;Trp53fl/+ mice that are either wild type DKK3 or heterozygous or homozygous DKK3-null. Relative expression of DKK3 mRNA in DKK3+/− hetero mice is 53% of DKK3^+/+ mice. (FIG. 11B) DKK3 cell surface binding was assessed by incubating BxPC3 or L3.6p1 cells with His-tagged rhDKK3 (10 μg/ml) with or without JM6-6-1 (70 μg/ml) and positive cells were sorted by flow cytometry. (FIG. 11C) Mice bearing orthotopic BxPC3 tumors were treated with DKK3 mAb JM6-6-1 (5 mg/kg i.p. once every 5 days). Overall tumor progression was measured every 3-4 days by IVIS imaging.
Binding assay. Cell surface binding of DKK3 was performed using flow cytometry. In brief, BxPC3 or L3.6p1 cells (0.5×10^6) were incubated for 30 min with His-labeled rhDKK3 (10 μg/mL) with or without JM6-6-1 (70 μg/mL). After washing with binding buffer (3% BSA in PBS), cells were stained with 1:100 anti-His antibody (abCam) for 30 min and followed by staining with secondary antibody conjugated with Dylight488 for 20 min. The cells were fixed with 2% paraformaldehyde and were subjected to fluorescent signal detection by BD FACSCalibur.

KPC model of PDAC = test: Survival of KPC mice (P48-Cre; Kras LSL-G12D;Trp53fl/fl) with wild type DKK3; assay type: in vivo, mouse
Experimental: HPSCs and BxPC3 cells were treated with DKK3 mAb clones JM6-6-1 and JM8-12-1 or isotype control mAb or PBS. (FIGS. 5A-B) HPSC apoptosis and migration as measured by FACS and Transwell migration assay at 48 hours. (FIG. 5C) BxPC3 migration in response to rhDKK3 10 μg/ml as measured by Transwell migration assay at 48 hours. (FIG. 5D) BxPC3 resistance to gemcitabine 100 μM as measured by MTS proliferation assay at 6 days. HPSC-CM, pancreatic stellate cell conditioned media, 10 μg/ml. The orthotopic co-injection BxPC3+ HPSC model of PDAC was used to test the efficacy of DKK3 mAb clones JM6-6-1 or JM8-12-1 (5 mg/kg i.p. once every 5 days). (FIG. 5E) Overall tumor progression was measured every 3-4 days by IVIS imaging. (FIG. 5F) Metastatic tumors in the peritoneal cavity after removal of the primary pancreatic tumor are shown by IVIS imaging. (FIG. 5G) Kaplan Meier survival curve showing mice treated with DKK3 mAb clone JM8-12 (right-most line), control mAb (middle line), or PBS (left-most line). (FIG. 5H) KPC mice (P48-Cre; Kras LSL-G12D;Trp53fl/fl) with either wild type DKK3 (solid lines) or deficient in DKK3 (“DKK3-KO,” dashed lines) were treated with DKK3 mAb JM6-6-1 (5 mg/kg i.p. once every 5 days), PBS or control mAb. Kaplan Meier survival curve is shown with hazard ratios (Log-rank test). *p<0.05, **p<0.01, ***p<0.001, ****p<0.0001 vs. control Ab.
Two GEMMs of PDAC that differ in the pancreas-specific promoter to target oncogenic Kras expression (Hingorani et al., 2005; Hingorani et al., 2003) were used in the experiments to evaluate the effect of DKK3 neutralizing mAb (Pdx1-Cre; Kras^LSL-G12D; Trp53^R172H/+ and P48-Cre; Kras^LSL-G12D; Trp53^fl/fl). To evaluate the effects of genetic ablation of DKK3 on pancreatic cancer development, DKK3-null mice were crossed to P48-Cre; Kras^LSL-G12D;Trp53^R172H or P48-Cre; Kras^LSL-G12D; Trp53^fl/fl mice (Hingorani et al., 2005; Hingorani et al., 2003), and the progeny were monitored until they were moribund. Tissue and blood samples were collected after the mice were euthanized. […]

[1] = system: KPC/DKK3-/- model of PDAC; test: Survival of KPC/DKK3-/- mice (P48-Cre; Kras LSL-G12D;Trp53fl/fl; dkk3-/-); assay type: in vivo, mouse
Experimental: HPSCs and BxPC3 cells were treated with DKK3 mAb clones JM6-6-1 and JM8-12-1 or isotype control mAb or PBS. (FIGS. 5A-B) HPSC apoptosis and migration as measured by FACS and Transwell migration assay at 48 hours. (FIG. 5C) BxPC3 migration in response to rhDKK3 10 μg/ml as measured by Transwell migration assay at 48 hours. (FIG. 5D) BxPC3 resistance to gemcitabine 100 μM as measured by MTS proliferation assay at 6 days. HPSC-CM, pancreatic stellate cell conditioned media, 10 μg/ml. The orthotopic co-injection BxPC3+ HPSC model of PDAC was used to test the efficacy of DKK3 mAb clones JM6-6-1 or JM8-12-1 (5 mg/kg i.p. once every 5 days). (FIG. 5E) Overall tumor progression was measured every 3-4 days by IVIS imaging. […]
FIGS. 6A-F. DKK3 blockade is associated with increased tumor immune infiltrates and improves response to checkpoint inhibitor therapy. (FIG. 6A) T cells were stimulated, treated with DKK3 (5-10 μg/mL) and proliferation was measured by CFSE assay. In a syngeneic orthotopic model with luciferase-labeled KPC cells, tumors were examined for CD3 and CD8 expression by IHC (FIG. 6B) and additional markers of T cell activity were measured by quantitative PCR (FIG. 6C). Mice in this model were treated with either control IgG, DKK3 mAb JM6-6-1, αCTLA4 or the combination JM6-6-1+αCTLA4 and tumor growth was measured by IVIS imaging to 25 and 190 days (FIG. 6D). […]

[2] = JM6-6-1 5 mg/kg i.p. once every 5 days

T1 sequence (Q9UBP4 22-350): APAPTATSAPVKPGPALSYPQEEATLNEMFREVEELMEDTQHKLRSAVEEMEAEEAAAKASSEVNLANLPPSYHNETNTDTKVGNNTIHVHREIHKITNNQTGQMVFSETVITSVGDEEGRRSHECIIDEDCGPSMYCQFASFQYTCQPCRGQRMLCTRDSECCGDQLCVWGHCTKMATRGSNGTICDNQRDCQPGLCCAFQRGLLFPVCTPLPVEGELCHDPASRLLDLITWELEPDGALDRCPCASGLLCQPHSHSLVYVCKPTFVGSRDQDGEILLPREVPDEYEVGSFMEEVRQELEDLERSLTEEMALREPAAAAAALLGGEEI

B1: JM6-6-1: monoclonal antibody against human DKK3; heavy chain variable SEQ ID NO: 19, light chain variable SEQ ID NO: 20 (antibody, V domains shown)
VH: EVKLVESGGGLVKPGGSLKLSCAASGFTFTIEYMAWIRQTPEKRLEWVASISSGGDDIYYADNVKGRFTISRDNAKNTLYLQMSSLKSEDTAIYYCSRSLSDWGQGTTLTVSSAKTTPPSDYPLA
VL: MTQTPLSLPVSLGDQASISCRSSQSILHSNGHTYLEWYLQKPGQSPKLLIYKVSNRFSGVPDRFSGSGSGTDFTLKISRVEAEDLGVYYCFQGSHVPFTFGSGTKLEIERADAAQ
In the case of B1, the “blocking of rhDKK3 binding to PDAC cells” value (DKK3) is reported as “effective in blocking binding of rhDKK3 to PDAC cells”, the “hazard ratio (HR) compared to PBS or isotype control mAb” value (KPC model of PDAC; [2]) is reported as 0.24 and the “increase of median survival compared to PBS or isotype control mAb” value (KPC model of PDAC; [2]) is reported as 43%. For the same molecule, the median survival (KPC model of PDAC; KPC mice with wild type DKK3) was 61.5 days, the “effect on survival compared to PBS or control mAb” value [1] was “no effect on survival” and the median survival [1] was 58 days.
